Values quoted from earlier work as cited in PMC5855614.

Target: Galectin-3 (Homo sapiens) (UniProt P17931)
Sequence (P17931 2-250): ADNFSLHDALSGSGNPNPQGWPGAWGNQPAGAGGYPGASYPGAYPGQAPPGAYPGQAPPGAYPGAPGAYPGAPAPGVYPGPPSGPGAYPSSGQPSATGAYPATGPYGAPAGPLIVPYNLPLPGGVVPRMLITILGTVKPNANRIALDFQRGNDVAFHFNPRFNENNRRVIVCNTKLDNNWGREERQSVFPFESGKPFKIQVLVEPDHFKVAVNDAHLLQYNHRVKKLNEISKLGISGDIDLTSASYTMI

Kd: 0.072 µM
Substance: G3-C12
